This is an account of results in PMC3673817.

This assay concerns the target FLAG-tagged full length EEA1 (Early endosomal autoantigen 1) (human) (UniProt Q15075). Briefly: SPR; EEA1-FLAG amine-coupled to a CM5 chip (~2,000 RU), Biacore 2000, 25°C; E2 injected at 2.5 to 160 μM, 20 μL/min, in 10 mM Hepes pH 7.4, 150 mM NaCl, 3 mM EDTA, 0.005% surfactant P20; response plotted against the E2 concentration.
Chain of UniProt Q15075 (Q15075 whole entry): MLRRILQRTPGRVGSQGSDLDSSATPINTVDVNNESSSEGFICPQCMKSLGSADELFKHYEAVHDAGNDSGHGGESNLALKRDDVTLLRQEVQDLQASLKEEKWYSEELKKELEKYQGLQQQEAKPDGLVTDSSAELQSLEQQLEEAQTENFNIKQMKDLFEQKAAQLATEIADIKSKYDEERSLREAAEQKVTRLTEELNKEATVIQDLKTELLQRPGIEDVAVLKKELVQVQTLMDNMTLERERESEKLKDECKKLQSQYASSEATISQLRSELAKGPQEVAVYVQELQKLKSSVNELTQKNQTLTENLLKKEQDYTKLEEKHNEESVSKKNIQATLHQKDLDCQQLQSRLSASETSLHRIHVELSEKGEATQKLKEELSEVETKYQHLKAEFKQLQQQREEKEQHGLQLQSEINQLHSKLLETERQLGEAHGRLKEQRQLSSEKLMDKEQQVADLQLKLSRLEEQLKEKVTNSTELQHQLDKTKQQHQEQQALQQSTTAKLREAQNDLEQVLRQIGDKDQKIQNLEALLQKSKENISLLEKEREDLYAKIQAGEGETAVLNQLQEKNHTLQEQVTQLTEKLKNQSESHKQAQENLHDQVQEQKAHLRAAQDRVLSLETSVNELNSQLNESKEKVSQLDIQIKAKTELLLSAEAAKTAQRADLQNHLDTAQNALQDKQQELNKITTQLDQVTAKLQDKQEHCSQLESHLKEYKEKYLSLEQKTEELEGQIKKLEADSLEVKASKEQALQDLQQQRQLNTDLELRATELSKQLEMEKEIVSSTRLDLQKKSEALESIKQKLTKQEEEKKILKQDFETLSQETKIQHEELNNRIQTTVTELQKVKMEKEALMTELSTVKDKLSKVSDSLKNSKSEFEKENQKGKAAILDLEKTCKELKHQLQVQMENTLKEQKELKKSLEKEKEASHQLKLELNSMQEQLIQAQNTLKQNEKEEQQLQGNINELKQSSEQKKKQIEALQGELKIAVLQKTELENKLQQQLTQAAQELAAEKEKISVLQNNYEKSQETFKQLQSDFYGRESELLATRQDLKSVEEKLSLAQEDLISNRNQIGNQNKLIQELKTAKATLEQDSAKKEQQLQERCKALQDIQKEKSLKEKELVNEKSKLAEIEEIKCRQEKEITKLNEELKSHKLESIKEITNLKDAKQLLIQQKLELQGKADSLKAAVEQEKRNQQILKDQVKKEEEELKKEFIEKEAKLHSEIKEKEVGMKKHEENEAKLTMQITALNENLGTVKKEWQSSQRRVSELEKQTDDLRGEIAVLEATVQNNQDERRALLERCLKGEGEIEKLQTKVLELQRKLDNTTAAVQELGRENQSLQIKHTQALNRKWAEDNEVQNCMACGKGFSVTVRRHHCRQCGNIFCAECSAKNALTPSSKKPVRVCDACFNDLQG

On to “Ube2A (HR6a) (from UniProt P49459 1-152) (enzyme; other documents disagree on this pair)”, for which the Kd (as a rule, the equilibrium constant for the complex coming apart) came out at 9.7 µM. This counts as single-digit micromolar.
